In the DeepSol protein solubility set:

assay: soluble on expression in E. coli; label from the status in PepcDB or PDB records

Soluble on expression in E. coli, not soluble:
MGSDKIHHHHHHMIDFLLLKSLHSLLGLTITVCDQNFSVIREYKSEKTISLFYNHYLILSNFSKTQHDFLFHYGSLGELFLVHHIQQYYIIIGPWRSNVIDPLLLKKKLTETQINASEQDYFIDRLSQLPFFSLSQIRELLIVTNYCLTGVVKDKLSEPLHYYTKGWSNSFDLDKIKQFSKQNMSSYKYQYHFENNILKAVKSGSEFLLKETVEQFSNSIVPIISGDELRSEKNYSIMIYDRLSQATIQAGLDIETAYRARDRFIKENESTISLNEVLKLRDTAILFYTQQVHSLKKHLETPHSQTIVAVIRYLENNLNRFIKTEEIAKECHMSESKLRKLFKQEKHITIQQYFLNLKIEAAKQLLDENKKVEEVSNLLGFSTSSNFSRTFKKIVGISPLEYKQKPKTI
MGSDKIHHHHHHMIDGKTANEIFDSIRQHIIAGTLRAEDSLPPVRELASELKVNRNTVAAAYKRLITAGLAQSLGRNGTVIKGSPSPVALEGGDPHTPLHDLSGGNPDPQRLPDLSRYFARLSRTPHLYGDAPVSPELHAWAARWLRDATPVAGEIDITSGAIDAIERLLCAHLLPGDSVAVEDPCFLSSINMLRYAGFSASPVSVDSEGMQPEKLERALNQGARAVILTPRAHNPTGCSLSARRAAALQNMLARYPQVVVIIDDHFALLSSSPWQPVIAQTTQHWAVIRSVSKTLGPDLRLAIVASDSATSAKLRLRLNAGSQWVSHLLQDLVYACLTDPEYQHRLTQTRLFYAARQQKLARALQQYGIAISPGDGVNAWLPLDTHSQATAFTLAKSGWLVREGEAFGVSAPSHGLRITLSTLNDSEINTLAADIHQALNR
MGSDKIHHHHHHMIDIAEETGYQYEILISTRTSDEENYYYDEIKVVSRNTRKRSEGLARAVKSATGNYAFIFEPSVRYSLTYADLIYGYINLGTSEVLVSNILGFQTDVIKNVGNWRPLTCGEDIDLMARAFDSYGVISYPMGGLTGLDIDDLIYGKWRNRIEKALAMRDLVIAANLKHNNIAEMAESMGIDLPTYEWLISGRILSYLSGIRPYEKNVNNYIFIMERIIESYISQDYRRIDTVSASPYISLSNRTRKYLSSVSDLWTEQNTDNKYPRESV
MGSDKIHHHHHHMIDLHCHILSGIDDGAQTITDSLAMAQQAVAEGIHTIVATPHHQNGKYVNERASIIHQVKQLNDELQQHEIPLKVLPGQEVRLYGGLLEDYEAGKIVTLNETNKYIFIEFPSNHVPRYTEQLFYELRVKGMIPIIVHPERNAELIERPDKLYNLVNKGALTQVTAGSLLGKFGKKIKRFSLQLVEHNLTHMIASDAHNTTSRGFHLEESYELIEKEFGTTVMNDLRENPYLIISGKAIYKEDPEQIRRKKLFGIF
MGSDKIHHHHHHMIDMNLILKKKFQEISEVDDFISKASTETDYFEPSTLSHGIPGIILFLDAYQKVFDINTEQIVHKYIMKLAPYLQSGQYNNSLFGGLSGIAFSMDLASQNGKNYQNILNNIDGHIVNEIENKFDQILQEPLNPLNYDTVSGLAGIGRYLLNRVDENEFNVKALKSILVYFKDIQYSKNSWVVPQESQFLESDKNYFTEGNINLGLAHGVLGPMSLFALCVIKGITIENHQHILKDMYKFIMDEKFCNHERWLQRYDLISERNHFNFIRNGWCYGNTGVMTTLFLIGQALYYYEIIKMSKKVMLQVVNDKDENLISPTICHGLSSQILMLTIMNLNFELNEVSDYITVLINKLISHYKEDYLVNFIDINENKQDVFKSRKVGLLEGELGVYLTLMTLKNTKILNEKNWTNAFLIS
MGSDKIHHHHHHMIEKPNAICLKNRKIIKVTGEEATHFLQALITTDVKKIGLQEIFPGALLSPQGKVLADFLIGKREDGYFIDIFSSLSDLLYKRLLLYKMRTKVEIMQPLQEFVTVSWENETDSLNFYSSFIDKRFPAKEKIIRIYGETPFLASECHDNWNRLRIRYAIPESDKDYEIGKVFPHDINYDQINGLAFNKGCYIGQEVVSRMHHRRAARRRILLVKSQHELIPGANIVAGTKILGSLGTCAANEALALMRIDHIKDAMDHNTPFTVKDVPVTISIAENMNFTFPESTV
MGSDKIHHHHHHMIEKTNPSHILLPEDSIKKYILPKYNLQDAEILQIKFKDTEKQRAVYKLTLGSKKYCLKKVYYDKGELLFVYSTTEWFFRHGINVTRILPTLDNSRFVIYSGMIFILMPWIDGLKCNYDKKEDLFKASKNLAHMHKCSQKFFSIQGSSIRYGFEHIYLSNKKHFEQILSFFNKAYEINDSFSKIALNNCDLCIKLSKIALNASSRIESRNFKKSLCHLDYVNKNIIFDKNNDIWVIDFDKCKFDYSVHDISYFMRRIMKRDNTRWNSELLINMLNVYEQINPLNLDEYLYILSYLVFPQKFWKICKDYYNNLSRCNKAAFINLIKSTTKYSELHLKFAYNFSNYIEGKFNVSLNL
MGSDKIHHHHHHMIFKEFGNKNMPTIVFLHGGGLSFWSFKEELSALKNSYRIVTPIIDGHGEDYNNTFISISNSAKHVINYIQESCNGHVFCICGLSLGAQILVEVLSLKHNISEYAVIESALVYPIKLSLNLMVAMNSLAYGLIKKKWFAKLQAKTLNVPQELFETYYKESSKMTKETLINITKSNGSYPMPNSICNTTASTLILVGERELSIMKKSAKLLNETIDNSILNIIPKAKHGEISLAYPKQYLDLLNKLFNSKK
MGSDKIHHHHHHMIFKKMINEFKMEIKNNKSKINPIDVYRYSIFFRNYIESTAEDALKNGINLSLLEKSCLKESSKSLLGLKVQLKEALLEAMISYRFNGAGYILVKPKSEDEDLSKKVNSELPTGFKYLDFQKIINKRDSSYVEYLSNSKDPDDFERARVVKIDKSRVIIYENYDYVLGEQEPAYTQSLLLNICLLEQIYLEIEKRIRNYNFLFYKDEHLVGLVESLEIAKEEINVLANSKGKIFSTFFKAQEPNKSFQALSSVSDELSRELSKIKNTLNNDGIFYTASENARLEVIKYDLEFLKDAFELVKAKIGADTKEPLTRSFNEQVKGLGSSGKGDKSNYYDYLKGVQESVANACNLKLNKYYRLNMKFNELEALSYEQRLQKDNLLLDVYFKYLELIKNENLSDKAKENLKEQLSLVI
MGSDKIHHHHHHMIGFEELNLQPGTRLQLMRHRGRTPVQYLSTFIGMERNEYLLLRLPKAQGTFLTFYDGEKVTVRVFSGVMISSFDASVIQTIHHPLNCLCISFPHAIQVKKIRREMRIKVDIEGRLGLQDRTILPVKLTNISATGCQILVDRDIGKVDGQVVLNFNIAQLHDDETSAMTLEAKVRNVVPAGLSGGASFLAGLEFVALESNVQLLVRHYVYECLVDRRQNLV
MGSDKIHHHHHHMIHVGTCGFCEAREKYFKDFDAVEVQQTFYKVLQEKTLERWRKKAPEEFTFSIKAFQGVTHPSNSPTWRRSNVKPSKNVGLLRPTNEVLHYWRITLKEAKVLGARFILIQLPRSFKEGEESFENAEKFFNAIDRGDFEIGVELRGWSEKGVKRFVREFDVIDVTDPLLRIPLHKGSVNYYRLHGKYEGGKIIYNHSYSDEELKKIRERVLGWNVEESFVFFNNTSMCRDAKRFKLILDLH
MGSDKIHHHHHHMIIGDKRLDVIHNIKQAANERNFTAKTEIGDPVMSSEEKLALVEGFWQKQDQAKTKFDGTVGHELLQLLTKTISGSTKVNGLGKLKGLPKGGAIVTANHFNQVDALAVNRLAQKAHRRMDIVIEDTNLMLPGFFSYIMNNMGSIPLTQSPNYLGREFIQHLNQAFNQNHWVLIFPEQEMWWNYRKPRKPQRGAYYFAAKCNVPVISTFVEIQDLPKLEKQNEHFYQTRYTVHVLDVLYPDPTKTASENASRLMEEDYKLKVQAYERVYKKKLDYDFTSWDIAGWRGE
MGSDKIHHHHHHMIINNNIKELSIAHLQLIVCLIKHGNSCVVSDELGISQSSISYHLRRLRVIFADEMFIRTGKGLKPTERCIQIGHFAQDLINRVEEELIHANDFVPKQMKRELTLIAADTACGWFSTLFSDMQKTLPRVTLCARPWNLKSMEDLDSGAVDFGIHIIENSKKGIYDMDIAPCYRLCVVRDGHPLISKGEVTLKDLEQYPVLINDLGGWNNDGNSLMQRVLEKHGLKLNIAGRLGYINSIFTALHTSNAITYTSAASIPQSIPGLTLLRGPKEVNEVDCFYRLYISRMRYGSQETNYLIDFIYDSFKHFLTQQYNRIDIAAVINK
